Results from patent US20060210984A1.
One block for each substance: values may come before it.

Assays:
[1] = biological target: IL-1b (human) (UniProt P01584); experiment: sandwich microarray in flow cell, chemiluminescence, cytokine 1 ng/ml; Chip 1
[2] = biological target: IL-1b (human) (UniProt P01584); experiment: sandwich microarray in flow cell, chemiluminescence, cytokine 1 ng/ml; Chip 2
[3] = biological target: IL-1b (human) (UniProt P01584); experiment: sandwich microarray in flow cell, chemiluminescence, cytokine 1 ng/ml; Chip 3
[4] = biological target: IL-1b (human) (UniProt P01584); experiment: sandwich microarray in flow cell, chemiluminescence, cytokine 1 ng/ml; Chip 4
[5] = biological target: IL-1b (human) (UniProt P01584); experiment: sandwich microarray in flow cell, chemiluminescence, cytokine 1 ng/ml; Chip 5
[6] = biological target: IL-1b (human) (UniProt P01584); experiment: sandwich microarray in flow cell, chemiluminescence, cytokine 1 ng/ml; AVG of Chips 1-5
[7] = biological target: IL-1b (human) (UniProt P01584); experiment: sandwich microarray in flow cell, chemiluminescence, cytokine 1 ng/ml, divided by chip-specific PNA calibration factor; Chip 1
[8] = biological target: IL-1b (human) (UniProt P01584); experiment: sandwich microarray in flow cell, chemiluminescence, cytokine 1 ng/ml, divided by chip-specific PNA calibration factor; Chip 2
[9] = biological target: IL-1b (human) (UniProt P01584); experiment: sandwich microarray in flow cell, chemiluminescence, cytokine 1 ng/ml, divided by chip-specific PNA calibration factor; Chip 3
[10] = biological target: IL-1b (human) (UniProt P01584); experiment: sandwich microarray in flow cell, chemiluminescence, cytokine 1 ng/ml, divided by chip-specific PNA calibration factor; Chip 4
[11] = biological target: IL-1b (human) (UniProt P01584); experiment: sandwich microarray in flow cell, chemiluminescence, cytokine 1 ng/ml, divided by chip-specific PNA calibration factor; Chip 5
[12] = biological target: IL-1b (human) (UniProt P01584); experiment: sandwich microarray in flow cell, chemiluminescence, cytokine 1 ng/ml, divided by chip-specific PNA calibration factor; AVG of Chips 1-5
[13] = biological target: IL-12p70 (human) (UniProt P29459); experiment: sandwich microarray in flow cell, chemiluminescence, cytokine 1 ng/ml; Chip 1
[14] = biological target: IL-12p70 (human) (UniProt P29459); experiment: sandwich microarray in flow cell, chemiluminescence, cytokine 1 ng/ml; Chip 2
[15] = biological target: IL-12p70 (human) (UniProt P29459); experiment: sandwich microarray in flow cell, chemiluminescence, cytokine 1 ng/ml; Chip 3
[16] = biological target: IL-12p70 (human) (UniProt P29459); experiment: sandwich microarray in flow cell, chemiluminescence, cytokine 1 ng/ml; Chip 4
[17] = biological target: IL-12p70 (human) (UniProt P29459); experiment: sandwich microarray in flow cell, chemiluminescence, cytokine 1 ng/ml; Chip 5
[18] = biological target: IL-12p70 (human) (UniProt P29459); experiment: sandwich microarray in flow cell, chemiluminescence, cytokine 1 ng/ml; AVG of Chips 1-5
[19] = biological target: IL-12p70 (human) (UniProt P29459); experiment: sandwich microarray in flow cell, chemiluminescence, cytokine 1 ng/ml, divided by chip-specific PNA calibration factor; Chip 1
[20] = biological target: IL-12p70 (human) (UniProt P29459); experiment: sandwich microarray in flow cell, chemiluminescence, cytokine 1 ng/ml, divided by chip-specific PNA calibration factor; Chip 2
[21] = biological target: IL-12p70 (human) (UniProt P29459); experiment: sandwich microarray in flow cell, chemiluminescence, cytokine 1 ng/ml, divided by chip-specific PNA calibration factor; Chip 3
[22] = biological target: IL-12p70 (human) (UniProt P29459); experiment: sandwich microarray in flow cell, chemiluminescence, cytokine 1 ng/ml, divided by chip-specific PNA calibration factor; Chip 4
[23] = biological target: IL-12p70 (human) (UniProt P29459); experiment: sandwich microarray in flow cell, chemiluminescence, cytokine 1 ng/ml, divided by chip-specific PNA calibration factor; Chip 5
[24] = biological target: IL-12p70 (human) (UniProt P29459); experiment: sandwich microarray in flow cell, chemiluminescence, cytokine 1 ng/ml, divided by chip-specific PNA calibration factor; AVG of Chips 1-5

Chain of UniProt P01584 (P01584 117-269 limits assumed): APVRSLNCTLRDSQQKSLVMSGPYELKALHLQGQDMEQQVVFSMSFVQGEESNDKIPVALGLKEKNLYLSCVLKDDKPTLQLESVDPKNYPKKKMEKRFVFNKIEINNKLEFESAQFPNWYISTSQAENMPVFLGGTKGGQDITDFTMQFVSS
Chain of UniProt P29459 (P29459 23-219 limits assumed, chain 1 of 2): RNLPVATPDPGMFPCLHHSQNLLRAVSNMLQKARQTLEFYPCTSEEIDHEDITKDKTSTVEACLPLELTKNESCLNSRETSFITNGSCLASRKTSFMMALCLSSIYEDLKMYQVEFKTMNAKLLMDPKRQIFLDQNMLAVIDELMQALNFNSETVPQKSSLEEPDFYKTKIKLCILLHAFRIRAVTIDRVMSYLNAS
Chain of UniProt P29459 (P29460 23-328 limits assumed, chain 2 of 2, further chain): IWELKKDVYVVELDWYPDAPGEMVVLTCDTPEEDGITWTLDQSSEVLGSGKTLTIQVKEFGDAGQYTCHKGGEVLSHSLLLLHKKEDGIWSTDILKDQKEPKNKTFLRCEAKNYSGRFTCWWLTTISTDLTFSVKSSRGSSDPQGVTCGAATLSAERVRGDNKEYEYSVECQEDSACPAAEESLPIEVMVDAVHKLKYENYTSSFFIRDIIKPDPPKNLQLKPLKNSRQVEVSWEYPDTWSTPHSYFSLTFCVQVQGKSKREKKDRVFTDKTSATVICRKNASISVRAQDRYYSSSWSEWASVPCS

chemiluminescent spot intensity (Un-Calibrated Data) [1]: 297
chemiluminescent spot intensity (Un-Calibrated Data) [2]: 150
chemiluminescent spot intensity (Un-Calibrated Data) [3]: 486
chemiluminescent spot intensity (Un-Calibrated Data) [4]: 221
chemiluminescent spot intensity (Un-Calibrated Data) [5]: 131
chemiluminescent spot intensity (Un-Calibrated Data) [6]: 257
chemiluminescent spot intensity (Calibrated Data) [7]: 498
chemiluminescent spot intensity (Calibrated Data) [8]: 513
chemiluminescent spot intensity (Calibrated Data) [9]: 486
chemiluminescent spot intensity (Calibrated Data) [10]: 485
chemiluminescent spot intensity (Calibrated Data) [11]: 404
chemiluminescent spot intensity (Calibrated Data) [12]: 477
Substance: MAb IL-1b (monoclonal capture antibody of the anti-human IL-1b OptEIA matched pair, BD Biosciences-Pharmingen)

chemiluminescent spot intensity (Un-Calibrated Data) [13]: 554
chemiluminescent spot intensity (Un-Calibrated Data) [14]: 255
chemiluminescent spot intensity (Un-Calibrated Data) [15]: 956
chemiluminescent spot intensity (Un-Calibrated Data) [16]: 397
chemiluminescent spot intensity (Un-Calibrated Data) [17]: 288
chemiluminescent spot intensity (Un-Calibrated Data) [18]: 490
chemiluminescent spot intensity (Calibrated Data) [19]: 929
chemiluminescent spot intensity (Calibrated Data) [20]: 872
chemiluminescent spot intensity (Calibrated Data) [21]: 956
chemiluminescent spot intensity (Calibrated Data) [22]: 872
chemiluminescent spot intensity (Calibrated Data) [23]: 888
chemiluminescent spot intensity (Calibrated Data) [24]: 903
Substance: MAb IL-12 p70 (monoclonal capture antibody of the anti-human IL-12p70 OptEIA matched pair, BD Biosciences-Pharmingen)
